One molecule from publication PMC2720833 (Journal of molecular biology, 2009) can be followed below.

The term stoichiometry N denotes the number of molecules, sites or subunits per partner or assembly. As a reminder, the Kd is the free concentration of one partner at which half of the binding sites on the other are occupied at equilibrium, for simple one-to-one binding.

What all share (test): ITC
On the technique in general: Isothermal titration calorimetry measures the heat released or taken up as one component is titrated into another.

The target in experiment [1] is SOCS3 box/elonginBC ternary complex (murine | human | mouse, UniProt Q15370 1-118; P83940 17-112).
The target in experiment [2] is SOCS1 box/elonginBC ternary complex (murine | human | mouse, UniProt Q15370 1-118; P83940 17-112).
Experiment [3] addresses SOCS4 box/elonginBC ternary complex (murine | human | mouse, UniProt Q15370 1-118; P83940 17-112).
The target of experiment [4] is SOCS6 box/elonginBC ternary complex (murine | human | mouse, UniProt Q15370 1-118; P83940 17-112).
For experiment [5], the target named is SOCS2 box/elonginBC ternary complex (murine | human | mouse, UniProt Q15370 1-118; P83940 17-112).
Experiment [6] concerns the target SOCS5 box/elonginBC ternary complex (murine | human | mouse, UniProt Q15370 1-118; P83940 17-112).
Experiment [7] concerns the target SOCS7 box/elonginBC ternary complex (murine | human | mouse, UniProt Q15370 1-118; P83940 17-112).
Experiment [8] addresses CIS box/elonginBC ternary complex (murine | human | mouse, UniProt Q15370 1-118; P83940 17-112).

B1: GST-Cullin5 (NTD), N-terminal domain of murine cullin5 (Met1-Leu385) with V341R and L345D (domain or fragment)
chain: MATSNLLKNKGSLQFEDKWDFMHPIVLKLLRQESVTKQQWFDLFSDVHAVCLWDDKGSSKIHQALKEDILEFIKQAQARVLSHQDDTALLKAYIVEWRKFFTQCDILPKPFCQLEVTLLGKQSSNKKSNMEDSIVRKLMLDTWNESIFSNIKNRLQDSAMKLVHAERLGEAFDSQLVIGVRESYVNLCSNPEDKLQIYRDNFEKAYLDSTERFYRTQAPSYLQQNGVQNYMKYADAKLKEEEKRALRYLETRRECNSVEALMECCVNALVTSFKETILAECQGMIKRNETEKLHLMFSLMDKVPNGIEPMLKDLEEHIISAGLADMVAAAETITTDSEKYREQLDTLFNRFSKLVKEAFQDDPRFLTARDKAYKAVVNDATIFKL
Regarding B1, the “stoichiometry N” value in experiment [1], in experiment [2], in experiment [3], in experiment [4], in experiment [5] and in experiment [6] was ~1 throughout. Also, the “stoichiometry N” value in experiment [7] and in experiment [8] was ~1 in each case. Further, the dissociation constant Kd in experiment [2] was 1000 nM; in experiment [3], ~10 nM; in experiment [4], ~10 nM; in experiment [5], ~10 nM; in experiment [6] it was ~10 nM; in experiment [7], ~10 nM. In experiment [8], the equilibrium dissociation constant (Kd) was ~10 nM.
